The values that follow come from patent US20130079280A1.

The target in the assay is Murine CD40L on the Th2 cell line D10.G4.1 (murine) (UniProt P27548). The experiment in a line: cell-based or functional assay.
Chain of Murine CD40L on the Th2 cell line D10.G4.1 (murine) (P27548 whole entry): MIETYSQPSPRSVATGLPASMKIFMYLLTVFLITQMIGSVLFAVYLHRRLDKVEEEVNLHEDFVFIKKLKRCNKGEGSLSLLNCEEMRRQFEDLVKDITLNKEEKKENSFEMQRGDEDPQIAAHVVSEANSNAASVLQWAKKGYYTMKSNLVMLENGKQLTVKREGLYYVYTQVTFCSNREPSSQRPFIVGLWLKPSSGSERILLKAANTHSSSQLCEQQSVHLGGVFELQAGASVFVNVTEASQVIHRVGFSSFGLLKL

In turn, MR1, anti-murine CD40L antibody displayed an IC50, inhibition of CD86 expression on CD19 gated B cells of 0.1 nM.
